# Test system: EGFP-R96X-TGA reporter
# Test: 100 nt 5′ leader sequence library with ArgTCA suppressor tRNA #115, EGFP-R96X-TGA reporter, Flp-In-293 cells (FIGS. 28, 29, 32)
# Assay type: cell-based, human
# From the text: FIG. 27 is a schematic representation of the constructs used to test the impact of a 5′ leader sequence on the read-through of a premature termination codon (PTC) by a suppressor tRNA. Constructs contain (i) a 100 bp 5′ leader sequence derived from genomic DNA located upstream of tRNA genes that are highly expressed in HEK293 cells, (ii) a single copy of either the ArgTCA suppressor tRNA #115 (SEQ ID NO: 18) or the GlnTTA suppressor tRNA #163 (SEQ ID NO: 45), and (iii) an RNA polymerase III termination signal (“Term”).
# FIG. 28 is a graph depicting the readthrough activity of the indicated ArgTCA suppressor tRNA expression constructs as measured by flow cytometry in Flp-In-293 cells at ~24 hours post transfection. […]
# FIG. 29 is a graph depicting the readthrough activity of the indicated ArgTCA suppressor tRNA expression constructs as measured by flow cytometry in Flp-In-293 cells at ~24 hours post transfection. […]
# The leader sequences in combination with the ArgTCA suppressor tRNA #115 (SEQ ID NO: 18) or the GlnTTA suppressor tRNA #163 (SEQ ID NO: 45) were tested for PTC readthrough activity by flow cytometry in cell lines co-transfected with an EGFP-R96X-TGA reporter (SEQ ID NO: 31) for ArgTCA constructs or an EGFP-Q69X-TAA reporter (SEQ ID NO: 175) for GlnTTA constructs.
molecule,measurement,value
"tRNA-Arg-TCT-2-1-TCA-SUP_no intron (nucleic acid, chemistry not fully specified) GGCTCCGTGGCGCAATGGATAGCGCATTGGACTTCAAATTCAAAGGTTCCGGGTTCGAGTCCCGGCGGAGTCG",readthrough activity when combined with the identified leader sequences,showed high readthrough activity
